PMC5739008 (The ISME journal, 2017)

Biological target: the molecule itself
Assay: SEC

B1: methanethiol oxidase (MTO) of Hyphomicrobium sp. VS (enzyme)
chain: DETCNSPFTTALITGQEQYLHVWTLGMPGVGDESDKLVTISVDPKSDKYGKVINTLSVGGRGEAHHTGFTDDRRYLWAGRLDDNKIFIFDLIDPANPKLIKTITDFADRTGYVGPHTFYALPGRMLIQALSNTKTHDGQTGLAVYSNAGELVSLHPMPVTDGGDGYGYDIGINPAKNVLLTSSFTGWNNYMMDLGKMVKDPEAMKRFGNTMAIWDLKSMKAEKILNVPGAPLEIRWSLKPEHNWAYTATALTSKLWLIKQDDKGEWIAKETGTIGDPSKIPLPVDISITADAKGLWVNTFLDGTTRFYDISEPEHPKEVFSKKMGNQVNMVSQSYDGKRVYFTTSLIANWDKKGAENDQWLKAYDWDGKELVEKFTVDFNELKLGRAHHMKFSSKTNAAELGTNQSFPTRQ
For B1, the “stoichiometry N” value was 4.
